Test results from patent publication US20260201069A1, “ANTIBODIES THAT SPECIFICALLY BIND MODIFIED OLIGONUCLEOTIDES” (Hoffmann-La Roche Inc., priority 2024, published 2026).

What was measured:
Assay in all cases: Epitope mapping solid phase immunoassay (ELISA)
Format in all cases: binding
Settings in all cases: signal-to-noise (S/N) class
[1] = tested on: LNA sequence (nucleotides/sequence of bases)
Source text: (§1) The epitope was mapped using immunoassays with capture molecules containing the following binding epitopes as well as combinations thereof: • LNA (2′-0,4-C-methylene), • phosphorothioate in the NA backbone, • nucleotides/sequence of bases, • DNA, • GalNAc-C6-modification.
(§2) The results of the epitope characterization of the antibodies according to the current invention by solid phase immunoassay (ELISA) using different biotinylated LNA, PS-backbone or DNA-containing NA-oligonucleotides as outlined above are shown in FIGS. 1 to 5.
(§3) The selected monoclonal LNA-specific Abs were further characterized for binding characteristics and epitope mapped by immunoassay using capture molecules containing the following binding epitopes and combinations thereof • LNA (2′-O.4-C-methylene) • phosphorothioate in the NA backbone • nucleotides/sequence of bases • DNA • GalNAc-C6-modification
(§4) The results of the antibody characterization by solid phase immunoassay (ELISA) using different biotinylated LNA, PS-backbone or DNA-containing NA-oligonucleotides are shown in FIGS. 1 to 5.

LNA (2′-O,4-C-methylene) = tested on: LNA (2′-O,4-C-methylene)
Source text: as §1, §2, §3, §4

DNA = tested on: DNA
Source text: as §1, §2, §3, §4

GalNAc-C6-modification = tested on: GalNAc-C6-modification
Source text: as §1, §2, §3, §4

[2] = tested on: Phosphorothioate Backbone
Source text: as §1, §2, §3, §4

Molecule	Impact of LNA sequence [1]	Reactivity to LNA (2′-O,4-C-methylene) (LNA (2′-O,4-C-methylene))	Reactivity to DNA (DNA)	Reactivity to GalNAc-C6-modification (GalNAc-C6-modification)	Reactivity to Phosphorothioate Backbone [2]
clone 1.9.21: anti-LNA monoclonal hybridoma antibody, VH SEQ ID NO: 48, VL SEQ ID NO: 57 (antibody, listed as Mus musculus, V domains shown) VH: QVQLQQSGAELVRPGTSVKVSCKASGYAFTNYLIEWIKQRPGQGLEWIGVINPGSGGTNYNEKFRVKATLTADKSSSTAYMQLSSLTSDDSAVYFCARGGGYYWGQGTLVTVSA VL: DIVMTQAAPSVPVTPGESVSISCRSSKSLLHSNGNTYLFWFLQRPGQSPQVLIYRMSNLASGVPDRFSGSGSGTAFTLRISRVEAEDVGVYYCMQHLEYPYTFGSGTRLEIK	+++ (+++: S/N ≥10)	++ (++: S/N: 5 to 10)	− (−: S/N <2)	− (−: S/N <2)	+++ (+++: S/N ≥10)
clone 1.5.13: anti-LNA monoclonal hybridoma antibody, VH SEQ ID NO: 81, VL SEQ ID NO: 89 (antibody, listed as Mus musculus, V domains shown) VH: QVQLKESGPGLVAPSQSLSITCTISGFSLTTYGVHWVRQPPGMGLEWLVVIWGDGSTTYNSALRSRLSISKDNSRSQVFLKMNSLQTDDTAMYYCARHGGRYALDYWGQGTSVTVSS VL: DIVMTQSPATLSVTPGDRVSLSCRASQSIGGYLHWYQQKSHESPRLLIKYASQSMSGIPPRFSGSGSGSDFTLSINSVAPEDVGVYYCQAGHTFPLTFGAGTKL	−/+ (−/+: S/N: 2 to 3)	− (−: S/N <2)	− (−: S/N <2)	− (−: S/N <2)	+++ (+++: S/N ≥10)
clone 1.7.15: anti-LNA monoclonal hybridoma antibody, VH SEQ ID NO: 12, VL SEQ ID NO: 21 (antibody, listed as Mus musculus, V domains shown) VH: QVQLKQSGPSFVQPSQSLSITCTVSGFSLTTYGVHWVRQSPGKGLEWLGVIWRSGGTDYNAAFMSRLSITKDNSKSQVFFKMNSLQTDDTAIYYCTNLYYWGQGTTLTVSS VL: DIVMTQATFSNPVTLGTSVSISCRSSKSLLRSNGITYLYWYLQKPGQSPQLLIYQMSNLASGVPDRFSSSGSGTDFTLRISRVEAEDVGVYYCGQNLELPYTFGSGTKVEIK	+++ (+++: S/N ≥10)	− (−: S/N <2)	− (−: S/N <2)	− (−: S/N <2)	+++ (+++: S/N ≥10)
clone 1.2.8: anti-LNA monoclonal hybridoma antibody, VH SEQ ID NO: 30, VL SEQ ID NO: 39 (antibody, listed as Mus musculus, V domains shown) VH: QIQLRESGPGLVAPSQSLSITCTVSGFSLTNYGVHWVRQPPGKGLEWLGVIWAGGSTIYNSALMSRLSISRDNSKSQVFLEMNSLQTYDTAMYYCARDRPFDGFFFSYWGQGTALTVSS VL: DVLMTQTPLSLPVSLGDQASISCRSSQAIVHRSGNTFLEWYLQKPGQSPKLLIYKVSNRFSGVPDRFSGSGSGTDFTLKINRVEAEDLGVYYCFQGSHVPYTFGSGTKLEIK	− (−: S/N <2)	− (−: S/N <2)	− (−: S/N <2)	− (−: S/N <2)	+++ (+++: S/N ≥10)
clone 1.4.10: anti-LNA monoclonal hybridoma antibody, VH SEQ ID NO: 65, VL SEQ ID NO: 73 (antibody, listed as Mus musculus, V domains shown) VH: QIQLRESGPGLVAPSQSLSITCTVSGFSLVNYGIHWVRQPPGKGLEWLGVIWAGGSTIYNSALMSRLSISRDNSKNQVFLEMNSLQTYDTAMYYCARDRPFDGFFFSYWGQGTALTVSS VL: DVLMTQTPLSLPVSLGDQASISCRSSQAIVHRSGNTFLEWYLQKPGQSPKLLIYKVSNRFSGVPDRFSGSGSGTDFTLKINRVEAEDLGVYYCFQGSHVPYTFGSGTKLEIK	+ (+: S/N: 3 to 5)	− (−: S/N <2)	− (−: S/N <2)	− (−: S/N <2)	+++ (+++: S/N ≥10)
